Test results as given in the supplement of paper PMC12455559.
± gives the standard deviation of the averaged measurements.

Tests used:
[1] = melting temperature (DSF); higher = more thermostable
Protocol: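 Candidate PET hydrolases were expressed in E. coli C41(DE3) in 2 mL autoinduction cultures in 24-deep-well plates, Ni-bead purified and released by SUMO protease cleavage on an OT-2 robot. Yield per well was measured by BCA; values below 25 ug (0.1 mg/mL) are below the detection threshold. Melting temperature was measured by differential scanning fluorimetry with Sypro Orange, ramping from 25 C at 0.3 C/step.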

[2] = PET hydrolysis, aromatic products released after 48 h (umol product/mg enzyme); higher = more PET depolymerization activity
Protocol: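 HTP-purified, SUMO-cleaved, tagless PET hydrolase candidates (5 ug, 1.43 mg/g PET) were incubated 48 h without shaking with 3.5 mg amorphous PET film (aFilm) or crystalline PET powder (cryPow) in 0.5 mL buffer: NaCitrate pH 4.5/5.5, NaPhosphate pH 6.5/7.5, glycine pH 8.5. Incubation was at 40 or 60 C. Aromatic products (TPA, MHET, BHET) in the supernatant were quantified by UV absorbance at 260/280 nm relative to buffer blanks and expressed per mg enzyme. LCC-ICCG was the positive control on every plate.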

[3] = purified protein yield per well (BCA); higher = higher soluble expression
Procedure, shortened: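 Candidate enzymes were expressed in E. coli C41(DE3) in 2 mL autoinduction cultures with 100 µg/mL kanamycin, at 37 °C for 2 h and then 18 °C for 40 h. Cells were lysed, and protein was bound to Ni-charged magnetic beads and released by SUMO protease cleavage on an OT-2 robot. The read-out is purified protein yield per well, measured with the Pierce Rapid Gold BCA kit. Values below 25 ug (0.1 mg/mL) are below the detection threshold.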

[4] = substrate: cryPow, 40 °C, pH 4.5
[5] = substrate: cryPow, 40 °C, pH 5.5
[6] = substrate: cryPow, 40 °C, pH 6.5
[7] = substrate: cryPow, 40 °C, pH 7.5
[8] = substrate: cryPow, 40 °C, pH 8.5
[9] = substrate: cryPow, 60 °C, pH 4.5
[10] = substrate: cryPow, 60 °C, pH 5.5
[11] = substrate: cryPow, 60 °C, pH 6.5
[12] = substrate: cryPow, 60 °C, pH 7.5

Sequence | melting temperature [1] [C] | PET hydrolysis ([2]; substrate: aFilm, 40 °C, pH 4.5) | PET hydrolysis ([2]; substrate: aFilm, 40 °C, pH 5.5) | PET hydrolysis ([2]; substrate: aFilm, 40 °C, pH 6.5) | PET hydrolysis ([2]; substrate: aFilm, 40 °C, pH 7.5) | PET hydrolysis ([2]; substrate: aFilm, 40 °C, pH 8.5) | PET hydrolysis ([2]; substrate: aFilm, 60 °C, pH 4.5) | PET hydrolysis ([2]; substrate: aFilm, 60 °C, pH 5.5) | PET hydrolysis ([2]; substrate: aFilm, 60 °C, pH 6.5) | PET hydrolysis ([2]; substrate: aFilm, 60 °C, pH 7.5) | PET hydrolysis ([2]; substrate: aFilm, 60 °C, pH 8.5) | PET hydrolysis [2, 4] | PET hydrolysis [2, 5] | PET hydrolysis [2, 6] | PET hydrolysis [2, 7] | PET hydrolysis [2, 8] | PET hydrolysis [2, 9] | PET hydrolysis [2, 10] | PET hydrolysis [2, 11] | PET hydrolysis [2, 12] | purified protein yield per well [3] [µg]
MSNPYQRGPNPTRSALTADGPFSVATYTVSRLSVSGFGGGVIYYPTGTSLTFGGIAMSPGYTADASSLAWLGRRLASHGFVVLVINTNSRFDGPDSRASQLSAALNYLRTSSPSAVRARLDANRLAVAGHSMGGGGTLRIAEQNPSLKAAVPLTPWHTDKTFNTSVPVLIVGAEADTVAPVSQHAIPFYQNLPSTTPKVYVELCNASHIAPNSNNAAISVYTISWMKLWVDNDTRYRQFLCNVNDPALCDFRTNNRHCQLEHHHHHH [LCC-ICCG] | 93.6 | 8.5 ± 1.9 | 17.4 ± 9.2 | 38.1 ± 12 | 58.9 ± 20 | 73 ± 30 | 60.8 ± 8 | 448 | 820 ± 23 | 965 ± 100 | 584 | 20.1 ± 5.3 | 51.5 ± 15 | 94.5 ± 18 | 130 ± 20 | 113 ± 14 | 56.2 ± 7.2 | 121 ± 18 | 208 ± 33 | 236 ± 3 | 
ATAAPLPHAAADNPYQRGPDPTIAMIESTRGPFATASVSVPPGNGFNGGMIYYPTDTSQGTWGALAIVPGYTALFANEEAWMGPWLSSFGFVVIGVETNSRTDFDTARGTQLLAALDYLTTKSPVHDRVDPNRLSVLGHSMGGGGVVYATEHRPSLKAAVALAPFSPSQNMSTDTVPTMVIGGQNDTVVTPSYVDGLYATLPATTPSDFAQIAGADHVYYTHPNNVEMKLLIPWLKTFVDNDTRYTQFLCPTLPDPSTVSAYRPKCPYVPGGGTTPPPTGNTGPLHAVGAGKCLNAGASGSQAQIQDCTGGASQVWTHTDANQLSVTNGSQLCLDASGQGTSPGTKVITWACNGQPNQQWTVNSDGTVKGVQSGLCLDVSGASTASGALVQLWTCNGQPNQQWRLG [TEP062] |  |  |  |  |  |  |  |  |  |  |  | < 3 | < 3 | < 3 | < 3 |  | < 3 | < 3 | < 3 | < 3 | 85.2
TAGAEPSGGAPAAGGSGCGDVADPAAQGPLHVQTYSSGLRDGPDYGSQTMHYPTDGAPPYPALVIVPGFMSLESSIADHGPHFASHGIVTLTIGTNSTMDQPPARSEALLDALETIRAEHTRAGGPLEGKLDLSRLGVMGWSMGGGGTLITVDDHPELKAAITLCAWNPGQTYRNNQVPTLLFAGTADTLAGG [TEP195] |  |  |  |  |  |  |  |  |  |  |  | < 3 | < 3 | < 3 | < 3 |  |  |  |  |  | 30.1
DSPYERGPDPTTSSIEASSGPFDVDEDSVSSWSVSGFGGGTVYYPEDDGQTYGGVVIAPGYTESSSAMAWLGEYLASHGFVAFNIDTNTRYDQPDSRGRQIEAALDYLAEDSDVSDLVDPNRLAAMGHSMGGGGTLAAAEDRPELKAAIPLTPWHTDKTWGGVTVPTMIIGAENDTIAPNSSHSIPFYNSLSTSTERAYVELDGEGHLVTSSRNTELASNSVSWLKVFVDEDDRYEQFLCPAPSTGWGSPYSDYRDSCPYI [DP033] |  |  |  |  |  |  |  |  |  |  |  |  | < 3 | < 3 | < 3 | < 3 |  |  |  |  | 31
CATAGSALVSAPSLSGDGSYEVQTYTDFPDVPEFGAATIYYPVGASEPMGGVAIAPGFTEEQRHIAWWGPRLASHGYAVLVLDTNDRRERPDARADALIAGVTLLRAEGRRRGSPLFGRIDAAKMAIMGHSMGGGGALLAADEHSDLIRAAIPFTPWEPETDLRGISAPTLVLAGAADRVAEVEGHAWRHFSMIPESTPKVYMEIAGGDHYIADTTRGMDLATVGRYAIAWLKLYVDGDEQYRDLIYGEIPPADAAKFSRYVVNP [TEP157] |  |  |  |  |  |  |  |  |  |  |  | < 3 | < 3 | < 3 | < 3 |  | < 3 | < 3 | < 3 | < 3 | 80.2
VPVVPAQQENPYQRGPDPTPESVEAPRGSFAIEKATIARGSVQGFGGGTIYYPTDTAEGTFGAVAISPGFTESQSAISWYGERLATQGFVVFTIDTNGGLDQPDSRADQLLAALDFLTGSSEVKDRIDASRLGVLGHSMGGGGSLSAAKKRPALQAAVPLAPWHTNSNWSDVTVPTLIVGAENDAVAPVGMHAEPFYAGLTKAPEKAYLELKGADHFVTNSPNTVIAKSTLSWLKRFIDDDTRYDQFLCPPPKPDNDISEYRDTCPN [DP051] |  |  |  |  |  |  |  |  |  |  |  |  | < 3 | < 3 | < 3 | < 3 |  |  |  |  | < 25
CAAGGPGASPGLQPTIASLSVDGAFKVMTYTDIPDVPEFGDATVYYPADTPTPIGGVAISPGWTEAQRHINWWGPRLASHGYAVLVLDTNDARRDQPEERAEALIAAVRILRGENDRAESPLQGRVDTGKMAIMGHSMGGGGTLIAANKYPDEIQAAIPFTPWQPDGDFGQITAPTLVMAGSADRVAGVADHAWPHYQSIPETTTKVFMEVDGGNHFIADTRRGTDLGTIGRYGIAWLKLYLDGDERYRSFIYGAEAEVDREKFSRYLTSP [TEP119] |  |  |  |  |  |  |  |  |  |  |  | < 3 | < 3 | < 3 | < 3 |  | < 3 | < 3 | < 3 | < 3 | 78.9
QAPTRESLGAQGPYQVAYYSNFPAVQEFTAGTIYFPANKAQTFGAVAISPGFAERQENMSWWGRHLASHGFAVLTLDTNELRDDPAIRAEALMAALRVLSGESEREGSPLRGKIDTNRMAIMGHSMGGGGTLLAANTHSSELKAAIPFTPWQPDGDFSDVTVPTLIIAGEIDRVAPVNDHAWPHYQSLSASNPRLYLEIRGGNHFIANTAT [TEP038] |  |  |  |  |  |  |  |  |  |  |  | < 3 | < 3 | < 3 | < 3 |  |  |  |  |  | 52.1
